According to paper PMC9060465 (2022):
Read-outs that look alike come from different tables or passages of the source. Where no end group is shown, it is not given here. [ ]: non-standard residue; d: D form. Aib = CC(C)(N)C(=O)O

T1: human GLP-1R expressed in HEK293 cells (human, UniProt P43220 24-463)
T1 chain: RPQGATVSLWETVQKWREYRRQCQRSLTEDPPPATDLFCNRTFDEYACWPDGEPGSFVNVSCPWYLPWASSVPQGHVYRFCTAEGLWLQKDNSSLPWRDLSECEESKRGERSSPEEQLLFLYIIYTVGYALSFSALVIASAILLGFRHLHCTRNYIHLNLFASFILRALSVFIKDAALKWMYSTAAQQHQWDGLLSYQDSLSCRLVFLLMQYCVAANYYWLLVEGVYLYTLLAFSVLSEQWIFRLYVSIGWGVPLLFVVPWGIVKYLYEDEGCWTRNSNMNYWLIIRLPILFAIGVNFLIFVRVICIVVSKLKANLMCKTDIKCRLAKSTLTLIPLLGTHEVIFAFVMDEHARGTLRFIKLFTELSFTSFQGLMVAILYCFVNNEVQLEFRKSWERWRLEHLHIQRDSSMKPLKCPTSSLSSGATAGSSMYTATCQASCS

T2: human GIPR expressed in HEK293 cells (human, UniProt P48546 22-466)
T2 chain: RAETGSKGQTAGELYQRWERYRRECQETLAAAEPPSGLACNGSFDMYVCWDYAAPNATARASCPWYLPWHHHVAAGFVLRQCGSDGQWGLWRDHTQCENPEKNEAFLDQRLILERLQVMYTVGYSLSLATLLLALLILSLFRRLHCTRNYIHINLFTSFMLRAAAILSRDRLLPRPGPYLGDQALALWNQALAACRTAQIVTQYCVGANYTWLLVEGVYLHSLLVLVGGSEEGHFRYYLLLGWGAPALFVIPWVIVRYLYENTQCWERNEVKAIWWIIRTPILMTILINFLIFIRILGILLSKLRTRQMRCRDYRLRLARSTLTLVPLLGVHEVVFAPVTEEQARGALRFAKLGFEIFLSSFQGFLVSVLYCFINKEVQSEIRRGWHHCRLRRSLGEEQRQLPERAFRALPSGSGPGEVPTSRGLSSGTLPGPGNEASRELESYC

T3: isolated extracellular domain (ECD) of human GLP-1R, amino acids 24 to 145 (human, UniProt P43220 24-145)
T3 chain: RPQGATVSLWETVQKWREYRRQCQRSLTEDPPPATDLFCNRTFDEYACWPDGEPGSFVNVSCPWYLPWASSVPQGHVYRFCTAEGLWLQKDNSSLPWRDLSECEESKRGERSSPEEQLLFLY


Legend:
[1] = target: T1, human GLP-1R expressed in HEK293 cells; assay: [125I]GLP-1 competition, cell membranes
[2] = target: T2, human GIPR expressed in HEK293 cells; assay: [125I]GIP competition, cell membranes
[3] = target: T3, isolated extracellular domain (ECD) of …; assay: SPR; kinetic fit
[4] = target: T2, human GIPR expressed in HEK293 cells; assay: [125I]GIP competition, cell membranes
[5] = target: T1, human GLP-1R expressed in HEK293 cells; assay: [125I]GLP-1 competition, cell membranes

| Binder | Ki [1] [nM] | Ki [2] [nM] | Kd [3] [nM] | Ki [4] [nM] | Ki [5] [nM] |
| --- | --- | --- | --- | --- | --- |
| YAEGTFTSDYSI[Aib]LDKIAQKAFVQWLIAGGPSSGAPPPS [tirzepatide analog lacking the lipid moiety (TZP^ΔC20)] | 2.67 | 0.0235 | 70.6 | – | – |
| YAEGTFTSDVSSYLEGQAAKEFIAWLVKGR (not fully specified (C-terminus)) [GLP-1H7Y] | – | – | – | > 128 | – |
| YAEGTFTSDYSIALDKIAQKAFVQWLIAGGPSSGAPPPS (not fully specified) [tirzepatide (LY3298176)] | – | 0.087 | – | – | – |
| HAEGTFTSDYSI[Aib]LDKIAQKAFVQWLIAGGPSSGAPPPS (not fully specified (residue 2, C-terminus); ends and bridges not checked) | – | – | – | 0.416 | 0.599 |
